Assay results: the DeepSol protein solubility set

Test: soluble on expression in E. coli; label from the status in PepcDB or PDB records

Sequence | soluble on expression in E. coli
MTKAETSIGVFYVSEYGYSDRLAQAIINGITKTGVGVDVVDLGAAVDLQELRELVGRCTGLVIGMSPAASAASIQGALSTILGSVNEKQAVGIFETGGGDDEPIDPLLSKFRNLGLTTAFPAIRIKQTPTENTYKLCEEAGTDLGQWVTRDRSIKAMKSLGLEHHHHHH | soluble
MSDDPNTTQERAMEGPSENQAARQLEGNQEEAQRQPKEEQADREEAKGEEEAPQVAAALPIPDSPFLTELARLLRGSLRPYLNTEPDEVIEAARQDHQLDQEVANENLLQYICRTLVESNDMGKLAEIRELFARTPEDPAFNTPAGIDDSAMNQFYELIRDCRVVPEDDQTFVPRQALATRIHLIIDSFQARRESEFLRQWCQQNIVCLLYGNPVPEMKDFAYRILIEMLTSSSTWTAELESFANELSRKRGTFINDYWATIRDQNEAGDLDPKRTLFADFRDQHSVFGNVQFDIFRERLAQLEKLWHSQMRMFDVPDKVLCVTGIVTDTMTEMLMGVKDGKPNITPFLKKARIFYRLSDGAETSEAPAEASARASEAPEAPALPPKRSRGIKRKLSEYAEELFESKKPKSDELPTAEQWMYFLQHCLQGPEQDEQRGGNQ | not soluble
MNEQYSALRSNVSMLGKVLGETIKDALGEHILERVETIRKLSKSSRAGNDANRQELLTTLQNLSNDELLPVARAFSQFLNLANTAEQYHSISPKGEAASNPEVIARTLRKLKNQPELSEDTIKKAVESLSLELVLTAHPTEITRRTLIHKMVEVNACLKQLDNKDIADYEHNQLMRRLRQLIAQSWHTDEIRKLRPSPVDEAKWGFAVVENSLWQGVPNYLRELNEQLEENLGYKLPVEFVPVRFTSWMGGDRDGNPNVTADITRHVLLLSRWKATDLFLKDIQVLVSELSMVEATPELLALVGEEGAAEPYRYLMKNLRSRLMATQAWLEARLKGEELPKPEGLLTQNEELWEPLYACYQSLQACGMGIIANGDLLDTLRRVKCFGVPLVRIDIRQESTRHTEALGELTRYLGIGDYESWSEADKQAFLIRELNSKRPLLPRNWQPSAETREVLDTCQVIAEAPQGSIAAYVISMAKTPSDVLAVHLLLKEAGIGFAMPVAPLFETLDDLNNANDVMTQLLNIDWYRGLIQGKQMVMIGYSDSAKDAGVMAASWAQYQAQDALIKTCEKAGIELTLFHGRGGSIGRGGAPAHAALLSQPPGSLKGGLRVTEQGEMIRFKYGLPEITVSSLSLYTGAILEANLLPPPEPKESWRRIMDELSVISCDVYRGYVRENKDFVPYFRSATPEQELGKLPLGSRPAKRRPTGGVESLRAIPWIFAWTQNRLMLPAWLGAGTALQKVVEDGKQSELEAMCRDWPFFSTRLGMLEMVFAKADLWLAEYYDQRLVDKALWPLGKELRNLQEEDIKVVLAIANDSHLMADLPWIAESIQLRNIYTDPLNVLQAELLHRSRQAEKEGQEPDPRVEQALMVTIAGIAAGMRNTG | soluble
MARNNNQVKRDAAGRLFFLLDRQYRLVIQQVVALKPHVLAIAARQGMFVAKAYRFPVAAARHAWLLAALRKAGFSAAPAPMPIGRGGVVEAGGCYWLLTEYVAGARPISFAAWADAADGLHLLERYHTITANIASSKQEAMGLPRAQLYDKWRRRYEEFCRHLPVVETIMDKEDILFTLSWADYCLSTCREHAPELTADSAAIIHGDVASHNFLRTTTGQMYLIDYDAAALASPGLDYCQYANRLLPYIGWSYSTLARFAPLRRWLEKRWFLHALLFPADVFREWRSAAARRRPLVFDRKRRERFVRRLYAMLQ | not soluble
MGQSEPIVLVIFTNKDNKSDKPNDKLISETAKSVMKEFAAGSKNAAKELNDLEKKYNAHIGVYALDTKSGKEVKFNSDKRFAYASTSKAINSAILLEQVPYNKLNKKVHINKDDIVAYSPILEKYVGKDITLKALIEASMTYSDNTANNKIIKEIGGIKKVKQRLKELGDKVTNPVRYEIELNYYSPKSKKDTSTPAAFGKTLNKLIANGKLSKENKKFLLDLMLNNKSGDTLIKDGVPKDYKVADKSGQAITYASRNDVAFVYPK | soluble
RSFTAFLLFLPVGFLYPLAKKKELALQRQEELRRQFKEAVLILSSSLGAGYSVENAFAGSLRELEELYGREGMITKEFSYIAHQLRMNRTVETLLAEFADRSGLEEIKNFSDIFAVSKRSRGELVSVVNHTVHVISDRLQVREEILTMTAEKQFEQKIMNLVPYCIVIYIEFSSPGFFRQMYG | not soluble
MSLNGKNLTLNVPVTAAVPGARGIKADCITDGACTESSTYFQKSSNAATGSPYMFTIDMQKEAVISEINLSTRLVNGSEAAYKYTIEGSRDGKSYKMLVDGKLNWQVGFLILNIEDPSLYRYLRLRVYGVVNVHKNNSAMWADGIYEFAAYGKEGHHHHHH | not soluble
MSLNLTFKKKSFFFKLSSKVDNSNTTYNYKSGWIIKLKNIEKGVGFGEVNPLRKHDLDACQIQLNQIPKYVNSKNISELIKNFHPCIQSAINSALAEIERKINFQENYYFNEIDQTAILLDPHNALKELIILKGNKLLNKKSLTIKWKVGIQDNFSEEKTLIEILNHLKSNIKLRIDANGSWERETANRWVDILKDIENIDWLEQPLSKDDIEGLKELNKKMPIALDESLLKYPYLINEWDGWQIRRPSQERNPMQLLKELKDKKGFRSLSTSFETGIGRRWLFHLSSLQLLGLTPKVPGLALKKNPNSFLFQNDAQKIWDQLEGHHHHHH | not soluble
MSLSDLTIQKVESRILDVPLIRPHGFATTTSTEQHILLVSVHLENGVIGYGEGVVPGGPWWGGESVETMKALVDGYLAPVLIGRAVSELAGIMADLERVVARARYAKAAVDVAMHDAWARSLNVPVRDLLGGTVRDKVDVTWALGVLPLDVAVAEIEERIEEFGNRSFKLKMGAGDPAEDTRRVAELAREVGDRVSLRIDINARWDRRTALHYLPILAEAGVELFEQPTPADDLETLREITRRTNVSVMADESVWTPAEALAVVKAQAADVIALKTTKHGGLLESKKIAAIAEAGGLACHGATSLEGPIGTAASLQFAASTKAISYGTELFGPQLLKDTYIVQEFEYKDGQVAIPQGPGLGVDVDMDKVNFYTRKEGHHHHHH | soluble
MSLDRKGNPVVRWDNNWLGSNEPCEDRWATDLVRRDGAAGGAVGKAVNFWTRWYRGDSIPSESAPAEEDEAARGKHDLMLFSIMDGHAGDATSRLLQKSLHPTISMALAGLQRGNVPPRHNVWERWAGYLNPWYWLGTDTVWTPENVSKTIQNAFVQLDDNICQTPLKLLPTLSSPSTSSPTPRETLVALAQPAAAGACAISTLVDSENDDLYVAVTGDCRAVAGWEGEDGKWRCDVLSEDQMGDNPKEIERMRSEHPASERDTVIRNGRVQGGLQPTRAFGDAVYKWTNAQAAQIADAFRAQGERPRPGRPWNYTPPYVTARPEVTYRKLNAHTGEKLRFIVLATDGLWDRITSEESTLLLASYLSHPSHAPLPKSALPRREGHHHHHH | soluble
MNARSTGQHPARYPGAAAGEPTLDSWQEPPHNRWAFAHLGEMVPSAAVSRRPVNAPGHALVRLGAIAAQLPDLEQRLEQTYTDAFLVLRGTEVVAEYYRAGFAPDDRHLLMSVSKSLCGTVVGVLVDEGRIDPAQPVTEYVPELAGSVYDGPSVLQVLDMQISIDYNEDYVDPASEVQTHGRSAGWSTRRHGDPADTYEFLTTLRGDGSTGEFQYCSANTDVLAWIVERVTGLRYVEALSTYLWAKLDADRDATITVDTTGFGCAHGGVSCTARDLARVGRMMLDGGVAPRGRVVSEDWVRRVLAGGSHEAMTDKGFTNTFPDGSYTRQWWCTGNERANVSGIGIHGQNLWLDPLTDSVIVKLSSWPDPYTEHWHRLQNGILLDVSRALDAV | soluble
MKEYLKEKAHQLPLTPGVYLMKDATDTIIYVGKAKKLKNRVSSYFINSNQHSRKTMRLVKQIIDFDVLHTDTELDALLLECQLIQQYRPRYNRQMNAYEQYSYVSVAVNERQLEIKLLNIPTKENCFGPYSIRRKLNRLKIILDSIYDLVPTNYWHQTFQKESAIPTELFQQELFDFFHNQGREPIKRIAQQMQEAAEKQAFEKAAKLKEDWLFLTRFANQNQRISQANQRDWQLMWLPCQKKIKYYLIYQGLVVATRVVTKQTFQKYSPLELAKKIMPKKPPKTIEHYSKQQVDFLNILYGYISRHPECHLENLTIEKA | not soluble
SSSEGFICPQCMKSLGSADELFKHYEAVHDAGND | soluble
AIASCGKPQETYSTSSILTREQFEIQHQEEDTIGEQVIFIDGVAYNSRGFRVCGAPNQRGGFCARFGQCPFHKDKVTTFKMSEETVSEFPRQLLTESCNLLQNNERKFKNAWKLDEHHRFLVALKKFGHGNWRQIADYVETRSASQCQSHAQKYYLRKRKLASNANLKRSIFDLIDEDTLSVEIGEEDTWNIIQKCPSKEAQGSVRSRSKTLQRMSTDSSVESYPIRELSTVDSELSTLQTYKQASFFIRIFRNGVFSHGVDLELPNSLASFFIKAAQLLDMSVATKAYTRSGFEISSLHEVCPGDILWISSGEEFIFPSPVQYIET | soluble
MGSDKIHHHHHHMGKPTGFMEYDRCEAASVEPKERIKNFNEFHVFLSKENQQKQAARCMDCGVPFCQSGMTIAGMTSGCPLHNLVPEWNDLVYTGNWEQAYNRLHKTNNFPEFTSRVCPALCEKACTCGHWGSPVSVRDNEHGIIETAYANGYAAPKPPKVRTGKKVAIIGSGPSGLAAADQLNQRGHDVTVYEREDRVGGLLMYGIPNMKLDKSIIDRKVNIMKEEGIHFVTGCDVGKDIKPAELYKKYDRVILCCGAKNPRDIKADGRDAKGIYFAVDYLTQNTKSLLNSNLTDGKFVSAKGKNVVIIGGGDTGNDCVGTAIRQGAKSVTQLEMMPCPPTERAANNPWPQWPKVLKTDYGQEEAIAVFGHDPRTYKTTVKEFHKDKNGNLKELTIVSLESKKDEKTGRFMMVPVEGSEKKLPAELVLIAAGFLGTESYVAKAFGVELNARTNVSTQEGHYATNVKNVYVAGDNHRGQSLVVWAIREGREAAREVDESLMGYSYLSVQ | not soluble
MKLALVNRQVILPESGTESFQCHASTLVRLPCGTLVAAWFAGLREGSEDTAIWLSRYEHNIWTTPQRVAAREGEAHWNPVLFYPSDKLWLFYKVGSDVHVWKTWFITSSDRGFTWSTPAPLVNDDILPRGPVKNKLLLASNGAWIAPGSIESPERWRAFVDRSSDEGKHWSISFVPLEPDNAISGTNVALWDGIKKGRLWECCLENLLRWDGVIQPTLWESSPGHIHMLLRSTRGAIFRSDSIDYGATWSVARATSLPNNNSGIDLVSMQDGTLILALNPVNGNWGKRYPLSLIASQDNGESWLPLLDLESDHGEYSYPAIISEGGIVHITYTWNRKNIVYCRLQTVLEHHHHHH | not soluble
SLRAERLTSRVKALFSVLNYERARRPGLLGASVLGLDDIHRAWRTFVLRVRAQDPPPELYFVKVDVTGAYDTIPQDRLTEVIASIIKPQNTYCVRRYAVVQKAAHGHVRKAFKSHVSTLTDLQPYMRQFVAHLQETSPLRDAVVIEQSSSLNEASSGLFDVFLRFMCHHAVRIRGKSYVQCQGIPQGSILSTLLCSLCYGDMENKLFAGIRRDGLLLRLVDDFLLVTPHLTHAKTFLRTLVRGVPEYGCVVNLRKTVVNFPVEDEALGGTAFVQMPAHGLFPWCGLLLDTRTLEVQSDYSSYARTSIRASLTFNRGFKAGRNMRRKLFGVLRLKCHSLFLDLQVNSLQTVCTNIYKILLLQAYRFHACVLQLPFHQQVWKNPTFFLRVISDTASLCYSILKAKNAGMSLGAKGAAGPLPSEAVQWLCHQAFLLKLTRHRVTYVPLLGSLRTAQTQLSRKLPGTTLTALEAAANPALPSDFKTILDEG | not soluble
SRVQILKDFVKQHFPATPLLDYALEVEKITTSKKPNLILNVDGFIGVAFVDMLRNCGSFTREEADEYVDIGALNGIFVLGRSMGFIGHYLDQKRLKQGLYRHPWDDISYVLPEHMSM | soluble
